Results reported in IntAct's records for PubMed 31477895.

B1: Ubiquitin carboxyl-terminal hydrolase 15 (Homo sapiens), Q9Y4E8 (parent)
chain: MAEGGAADLDTQRSDIATLLKTSLRKGDTWYLVDSRWFKQWKKYVGFDSWDKYQMGDQNVYPGPIDNSGLLKDGDAQSLKEHLIDELDYILLPTEGWNKLVSWYTLMEGQEPIARKVVEQGMFVKHCKVEVYLTELKLCENGNMNNVVTRRFSKADTIDTIEKEIRKIFSIPDEKETRLWNKYMSNTFEPLNKPDSTIQDAGLYQGQVLVIEQKNEDGTWPRGPSTPKSPGASNFSTLPKISPSSLSNNYNNMNNRNVKNSNYCLPSYTAYKNYDYSEPGRNNEQPGLCGLSNLGNTCFMNSAIQCLSNTPPLTEYFLNDKYQEELNFDNPLGMRGEIAKSYAELIKQMWSGKFSYVTPRAFKTQVGRFAPQFSGYQQQDCQELLAFLLDGLHEDLNRIRKKPYIQLKDADGRPDKVVAEEAWENHLKRNDSIIVDIFHGLFKSTLVCPECAKISVTFDPFCYLTLPLPMKKERTLEVYLVRMDPLTKPMQYKVVVPKIGNILDLCTALSALSGIPADKMIVTDIYNHRFHRIFAMDENLSSIMERDDIYVFEININRTEDTEHVIIPVCLREKFRHSSYTHHTGSSLFGQPFLMAVPRNNTEDKLYNLLLLRMCRYVKISTETEETEGSLHCCKDQNINGNGPNGIHEEGSPSEMETDEPDDESSQDQELPSENENSQSEDSVGGDNDSENGLCTEDTCKGQLTGHKKRLFTFQFNNLGNTDINYIKDDTRHIRFDDRQLRLDERSFLALDWDPDLKKRYFDENAAEDFEKHESVEYKPPKKPFVKLKDCIELFTTKEKLGAEDPWYCPNCKEHQQATKKLDLWSLPPVLVVHLKRFSYSRYMRDKLDTLVDFPINDLDMSEFLINPNAGPCRYNLIAVSNHYGGMGGGHYTAFAKNKDDGKWYYFDDSSVSTASEDQIVSKAAYVLFYQRQDTFSGTGFFPLDRETKGASAATGIPLESDEDSNDNDNDIENENCMHTN

Variants of: B1
Details: with syvn1_human SYVN1, Q86TM6
Chain of syvn1_human SYVN1, Q86TM6 (Q86TM6 whole entry): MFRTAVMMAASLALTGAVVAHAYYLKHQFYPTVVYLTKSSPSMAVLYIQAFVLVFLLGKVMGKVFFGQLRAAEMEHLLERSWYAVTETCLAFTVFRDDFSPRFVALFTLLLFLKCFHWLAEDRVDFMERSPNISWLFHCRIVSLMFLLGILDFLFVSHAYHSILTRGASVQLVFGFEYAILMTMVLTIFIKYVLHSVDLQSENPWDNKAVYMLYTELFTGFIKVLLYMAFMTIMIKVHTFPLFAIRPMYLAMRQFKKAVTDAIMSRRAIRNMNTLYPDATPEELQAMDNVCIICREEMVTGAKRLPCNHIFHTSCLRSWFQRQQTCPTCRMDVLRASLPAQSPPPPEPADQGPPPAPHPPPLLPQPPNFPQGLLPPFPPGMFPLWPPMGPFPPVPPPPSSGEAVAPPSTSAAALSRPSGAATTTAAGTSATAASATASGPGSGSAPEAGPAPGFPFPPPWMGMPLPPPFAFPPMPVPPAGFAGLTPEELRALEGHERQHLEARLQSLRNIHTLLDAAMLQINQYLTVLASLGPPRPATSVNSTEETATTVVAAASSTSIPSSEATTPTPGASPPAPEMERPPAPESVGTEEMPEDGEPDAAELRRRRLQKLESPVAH

Row | effect of a mutation on the interaction | Variant
1 | with no effect | K21R
2 | with no effect | K228R
3 | with no effect | K154R
